In data set [1] the test system is SH-SY5Y cells. In words: Protection from oligomerized Abeta 1-42 toxicity, ApoGlo caspase 3/7 activation assay. The class given is cell-based, human. The settings on record: for inherent toxicity: 4 mg/mL; for protection from Abeta induced toxicity (caspase 3/7 induction): 4 mg/mL for 24 hrs, then oligomerized Abeta1-42 for 72 hours. The text has this: Upregulation of the HIF pathway is known to play a protective role in a number of neurodegenerative diseases, including pathologies that result in destruction of nerve cells and neurons. Such neurodegenerative diseases include Alzheimer's disease, Parkinson's disease, Huntington's disease, and Amylotrophic Lateral Sclerosis. Since treatment of SH-SY5Y upregulates HIF, treatment of cells with Apo- or Holo-transferrin should provide a protective effect on cells subjected to substances known to induce neurodegeneration. FIG. 7 highlights data assessing whether majorities of Apo- and Holo-transferrin could protect SH-SY5Y cells from the toxic effects of the known neurodegenerative toxin oligomerized Abeta 1-42 peptide (FIG. 7). SH-SY5Y neuronal cells cultured in growth media were treated with 4 mg/mL Apo-transferrin or Holo-transferrin for 24 hrs under normal oxygen levels. After 24 hrs, cells were treated with oligomerized Abeta1-42 peptide for an additional 72 hours. Following treatment with oligomerized Abeta1-42, cells were subjected to a ApoGlo caspase 3/7 activation assay. Control cells, untreated cells, were set to a normalized value of 1. The average caspase induction, relative to control cells, and standard deviations are shown for each treatment condition.

The test system of data set [2] is cortical epithelial (HRCE) cells. In words: Cell Titer Glow viability assay, HRCE cells. Type of data set: cell-based, human. The note with it: 48 hours. The protocol: (§1) Considering the anticipated safety profile of a human plasma protein, toxicity of DFO and transferrins (majority Apo, majority Holo and mixtures) was assessed in primary human kidney cells. The renal proximal tubule epithelial (RPTEC) or cortical epithelial (HRCE) cells were treated with the indicated concentrations of majority ApoTf or DFO for 48 hours (FIG. 11A); and RPTEC or HRCE cells were treated for 72 hrs with 4 mg/mL of majority ApoTf, majority HoloTf, mixtures of transferrin (FIG. 11B). After 48 or 72 hours, cells were subjected to a Cell Titer Glow viability assay. Control cells, untreated cells, were set to a value of 100% viable. The average viability and standard deviations are shown for each treatment condition.

For data set [3], the system named is SH-SY5Y cells. In words: Cell Titer Glow viability assay, SH-SY5Y cells. The class given is cell-based, human. The settings on record: 4 mg/mL, 72 hours. The protocol: Since it has been reported that HoloTf is toxic to cells in vivo and in vitro, toxicity of various compositions containing majority ApoTf, majority HoloTf or mixtures of ApoTf+HoloTf was tested in SH-SY5Y cells. SH-SY5Y cells were treated with the indicated concentrations of 4 mg/mL Tf (as indicated in FIG. 5A), M30 or DFO for 72 hours. After 72 hours, cells were subjected to a Cell Titer Glow viability assay. Control cells, untreated cells, were set to a value of 100% viable. The average viability and standard deviations are shown for each treatment condition.

The test system of data set [4] is renal proximal tubule epithelial (RPTEC) cells. The data set is described as follows: Cell Titer Glow viability assay, RPTEC cells. The class given is cell-based, human. The note with it: 48 hours. The protocol:
as §1

A short description of data set [5]: MCAo (Middle Cerebral Artery occlusion) rat model of brain stroke, infarct volume. The class given is in vivo. The note with it: 385 mg/kg, IV, transient MCAo rat.
The subject of data set [6] is NCI-H1650. In words: Cell Titer Glow viability assay, NCI-H1650. The note with it: 4 mg/mL, 72 hours. The class given is cell-based, human. The protocol:
Given the anticipated safety profile of a human plasma protein, toxicity of transferrins (majority Apo, majority Holo and pd-transferrin) in NCI-H1650 and primary human hepatocyte cells was assessed. The human lung cell line, NCI-H1650, and primary human hepatocytes were treated for 72 hours with 4 mg/mL of majority ApoTf, majority HoloTf, or pd-transferrin. After 72 hours, cells were subjected to a Cell Titer Glow viability assay. Control cells, untreated cells, were set to a value of 100% viable. The average viability and standard deviations are shown in FIGS. 14A and 14B for each treatment condition.

For “majority ApoTf: plasma derived transferrin composition, majority iron-free apo-transferrin (98% ApoTf, 2% HoloTf)”, the inherent toxicity result in data set [1] is given as “lack of inherent toxicity”. Further, the “protection from Abeta induced toxicity (caspase 3/7 induction)” value in data set [1] is “protect SH-SY5Y cells from Abeta induced toxicity”. The “toxicity (cell viability)” value in data set [2] is given as “none of the transferrin molecules showed any detrimental effects”; in data set [3], “No toxic effects”; in data set [4], “none of the transferrin molecules showed any detrimental effects”; in data set [6], “no toxicity”. In addition, the “volume of the infarcted area vs saline control” value in data set [5] is “significant decrease”.
Turning to “majority HoloTf: plasma derived transferrin composition, majority diferric holo-transferrin (30% ApoTf, 70% HoloTf)”, the inherent toxicity result in data set [1] is recorded as “lack of inherent toxicity”. Moreover, the “protection from Abeta induced toxicity (caspase 3/7 induction)” value in data set [1] is “protect SH-SY5Y cells from Abeta induced toxicity”. For the same substance, the “toxicity (cell viability)” value in data set [3] is on record as “no toxicity or detrimental effects”; in data set [6], “no toxicity”.

The values are drawn from patent publication USRE50230E1, “Method of treatment of hypoxia inducible factor (HIF)-related conditions” (GRIFOLS WORLDWIDE OPERATIONS LIMITED, priority 2014, dated 2024).
